To fix the notation:
T1: hENG(26-437)-hFc (human, UniProt P17813 26-437)
T1 construct: HEK 293, purified; not shown: linker and human IgG1 Fc domain
T1 sequence: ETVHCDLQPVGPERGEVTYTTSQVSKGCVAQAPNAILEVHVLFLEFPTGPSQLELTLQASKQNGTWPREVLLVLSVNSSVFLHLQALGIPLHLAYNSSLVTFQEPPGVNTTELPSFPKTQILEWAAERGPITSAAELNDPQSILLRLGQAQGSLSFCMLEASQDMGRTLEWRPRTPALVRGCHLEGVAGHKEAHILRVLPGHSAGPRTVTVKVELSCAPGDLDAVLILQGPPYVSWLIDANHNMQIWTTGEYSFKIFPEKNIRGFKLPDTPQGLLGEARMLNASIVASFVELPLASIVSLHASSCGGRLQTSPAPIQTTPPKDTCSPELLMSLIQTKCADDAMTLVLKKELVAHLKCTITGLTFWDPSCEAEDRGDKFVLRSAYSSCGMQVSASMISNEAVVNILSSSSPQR

T2: hENG(26-586) (human, UniProt P17813 26-586)
T2 construct: Bought protein, a human variant with no Fc domain; also called R&D Systems, catalog #1097-EN
T2 sequence: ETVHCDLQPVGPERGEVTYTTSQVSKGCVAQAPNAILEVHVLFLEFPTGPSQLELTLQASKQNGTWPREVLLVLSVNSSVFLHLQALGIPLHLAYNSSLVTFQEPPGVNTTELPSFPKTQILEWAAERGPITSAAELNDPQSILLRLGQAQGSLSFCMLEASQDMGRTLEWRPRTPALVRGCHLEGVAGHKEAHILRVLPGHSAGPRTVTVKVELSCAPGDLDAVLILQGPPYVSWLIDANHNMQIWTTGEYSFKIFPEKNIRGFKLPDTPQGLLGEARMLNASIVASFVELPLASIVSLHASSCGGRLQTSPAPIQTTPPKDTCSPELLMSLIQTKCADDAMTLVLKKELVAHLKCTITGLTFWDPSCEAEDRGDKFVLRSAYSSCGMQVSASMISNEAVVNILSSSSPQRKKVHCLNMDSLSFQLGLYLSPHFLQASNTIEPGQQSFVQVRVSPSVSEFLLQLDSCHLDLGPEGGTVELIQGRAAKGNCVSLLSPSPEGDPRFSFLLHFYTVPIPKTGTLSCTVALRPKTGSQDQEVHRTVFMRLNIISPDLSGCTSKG

T3: BMP5 (human, UniProt P22003 317-454, limits assumed)
T3 sequence (looked up): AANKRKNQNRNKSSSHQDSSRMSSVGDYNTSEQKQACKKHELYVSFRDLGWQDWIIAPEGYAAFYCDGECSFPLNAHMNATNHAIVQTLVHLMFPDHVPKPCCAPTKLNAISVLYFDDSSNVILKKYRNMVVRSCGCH

B1: BMP7 (ligand, human, UniProt P18075 293-431, looked up)
chain: STGSKQRSQNRSKTPKNQEALRMANVAENSSSDQRQACKKHELYVSFRDLGWQDWIIAPEGYAAYYCEGECAFPLNSYMNATNHAIVQTLVHFINPETVPKPCCAPTQLNAISVLYFDDSSNVILKKYRNMVVRACGCH
notes: also called hBMP-7
B2: activin A (ligand, human, UniProt P08476 311-426, looked up)
chain: GLECDGKVNICCKKQFFVSFKDIGWNDWIIAPSGYHANYCEGECPSHIAGTSGSSLSFHSTVINHYRMRGHSPFANLKSCCVPTKLRPMSMLYYDDGQNIIKKDIQNMIVEECGCS
notes: also called hActivin A
B3: TGF-β3 (ligand, human, UniProt P10600 301-412, looked up)
chain: ALDTNYCFRNLEENCCVRPLYIDFRQDLGWKWVHEPKGYYANFCSGPCPYLRSADTTHSTVLGLYNTLNPEASASPCCVPQDLEPLTILYYVGRTPKVEQLSNMVVKSCKCS
notes: also called hTGF-β3
B4: BMP2 (ligand, human, UniProt P12643 283-396, looked up)
chain: QAKHKQRKRLKSSCKRHPLYVDFSDVGWNDWIVAPPGYHAFYCHGECPFPLADHLNSTNHAIVQTLVNSVNSKIPKACCVPTELSAISMLYLDENEKVVLKNYQDMVVEGCGCR
notes: also called hBMP-2
B5: hBMP-2/7 (ligand, human)
chain 1: B4 chain
chain 2: B1 chain
B6: TGF-β2 (ligand, human, UniProt P61812 303-414, looked up)
chain: ALDAAYCFRNVQDNCCLRPLYIDFKRDLGWKWIHEPKGYNANFCAGACPYLWSSDTQHSRVLSLYNTINPEASASPCCVSQDLEPLTILYYIGKTPKIEQLSNMIVKSCKCS
notes: also called hTGF-β2
B7: ActRIIB-mFc (Fc fusion, not shown: a dimerising Fc or GST)
chain: GRGEAETRECIYYNANWELERTNQSGLERCEGEQDKRLHCYASWRNSSGTIELVKKGCWLDDFNCYDRQECVATEENPQVYFCCCEGNFCNERFTHLPEAGGPEVTYEPPPTAPT

The first assay concerns the target T1, hENG(26-437)-hFc. Put plainly: SPR ligand screen; '-' = Binding undetectable.
On to B1, for which the binding result is “no binding (tested: 100 nM)”. Same read-out and setting: the same measure for B2: “no binding (tested: 100 nM)”; for B3: “no binding (tested: 50 nM)”. The same measure, in the same setting: the same measure for B4: “no binding (tested: 100 nM)”; for B5: “no binding (tested: 100 nM)”; for B6: “no binding (tested: 100 nM)”.

The target of another assay is T2, hENG(26-586). In words: SPR (Biacore), immobilized hENG(26-586), soluble ligand; '-' = binding undetectable. The text has this: Considered a co-receptor, ENG is widely thought to function by facilitating the binding of TGF-β1 and -3 to multi-protein complexes of type I and type II receptors. To investigate the possibility of direct ligand binding by isolated ENG, surface plasmon resonance (SPR) methodology (Biacore™ instrument) was used to screen for binding of captured proteins comprising the full-length extracellular domain of ENG to a variety of soluble human TGF-β family ligands.
(In general: In SPR one partner is held on a chip, and binding of the other changes the refractive index at the surface.)
As to B1, the binding result is given as “no binding (tested: 25 nM)”. The same measure, in the same setting: then B2, with “no binding (tested: 25 nM)”. Regarding B3, the binding result is listed as “no binding (tested: 25 nM)”. Still for that read-out and setting: then B4, with “no binding (tested: 25 nM)”; and B5, with “no binding (tested: 25 nM)”. Same read-out and setting: the same measure for B6: “no binding (tested: 25 nM)”.

A further assay has as its target T3, BMP5. Put plainly: SPR (Biacore), ligand amine-coupled to CM5 chip, Fc fusion injected.
In the case of B7, the binding result is “binds”.

The record behind these values is US20200087367A1 (ACCELERON PHARMA, published 2020).
